{"source": "patent EP4740966A1", "assay_in_all_cases": "co-expression of chains A and B 1:1 in HEK293, Protein A, non-reduced SDS-PAGE band intensity", "key": {"[1]": {"molecular_target": "VhH-Fc fusion protein, chain B with T366S+L368A+Y407V+K409A+E357A"}, "[2]": {"molecular_target": "Human IgG1-Fc, chain B with D356C+T366S+L368A+Y407V+Q347R (human) [IgG part: P0DOX5]"}, "[3]": {"molecular_target": "ScFv-Fc fusion protein, chain A with T366W+F405K"}, "[4]": {"molecular_target": "Human IgG1-Fc, chain B with D356C+T366S+L368A+Y407V+K360E+Q347E (human) [IgG part: P0DOX5]"}, "[5]": {"molecular_target": "VhH-Fc fusion protein, chain B with T366S+L368G+Y407A+K409A"}, "[6]": {"molecular_target": "ScFv-Fc fusion protein, chain A with T366W+K409A"}, "[7]": {"molecular_target": "ScFv-Fc fusion protein, chain A with Y349C+T366W+F405K+K360E+Q347E"}, "[8]": {"molecular_target": "VhH-Fc fusion protein, chain B with D356C+T366S+L368A+Y407V"}, "[9]": {"molecular_target": "ScFv-Fc fusion protein, chain A with Y349C+T366W+K409A+K360E+Q347E"}, "[10]": {"molecular_target": "ScFv-Fc fusion protein, chain A with T366W+K409A+Y349D"}, "[11]": {"molecular_target": "ScFv-Fc fusion protein, chain A with Y349C+T366W+K409A+Q347R"}, "[12]": {"molecular_target": "ScFv-Fc fusion protein, chain A with T366W+F405K+Y349D+S354D"}, "[13]": {"molecular_target": "ScFv-Fc fusion protein, chain A with Y349C+T366W+F405K"}, "[14]": {"molecular_target": "ScFv-Fc fusion protein, chain A with Y349C+T366W+F405K", "remark": "listed apart in the source"}, "[15]": {"molecular_target": "ScFv-Fc fusion protein, chain A with Y349C+T366W+F405K", "remark": "listed apart in the source"}, "[16]": {"molecular_target": "ScFv-Fc fusion protein (anti-Her2 single chain antibody-Fc), chain A with Y349C+T366W"}, "[17]": {"molecular_target": "VhH-Fc fusion protein, chain B with T366S+L368A+Y407V+D399S+F405K"}, "[18]": {"molecular_target": "ScFv-Fc fusion protein, chain A with Y349C+T366W+F405K+Q347R"}, "[19]": {"molecular_target": "Human IgG1-Fc, chain B with D356C+T366S+L368A+Y407V+F405K+K360E+Q347E (human) [IgG part: P0DOX5]"}, "[20]": {"molecular_target": "VhH-Fc fusion protein, chain B with T366S+L368A+Y407V+K409A+K392D"}, "[21]": {"molecular_target": "Human IgG1-Fc, chain B with D356C+T366S+L368A+Y407V+F405K+Q347R (human) [IgG part: P0DOX5]"}, "[22]": {"molecular_target": "ScFv-Fc fusion protein, chain A with T366W+K409A+Y349D+S354D"}, "[23]": {"molecular_target": "Human IgG1-Fc, chain B with D356C+T366S+L368A+Y407V+F405K (human) [IgG part: P0DOX5]"}, "[24]": {"molecular_target": "Human IgG1-Fc, chain B with D356C+T366S+L368A+Y407V+F405K (human) [IgG part: P0DOX5]", "remark": "listed apart in the source"}, "[25]": {"molecular_target": "ScFv-Fc fusion protein, chain A with Y349C+T366W+K409A"}, "[26]": {"molecular_target": "ScFv-Fc fusion protein, chain A with Y349C+T366W+K409A", "remark": "listed apart in the source"}, "[27]": {"molecular_target": "ScFv-Fc fusion protein, chain A with Y349C+T366W+K409A", "remark": "listed apart in the source"}, "[28]": {"molecular_target": "ScFv-Fc fusion protein, chain A with T366W+K409A+K392D"}, "[29]": {"molecular_target": "ScFv-Fc fusion protein, chain A with T366W+F405K+D399S"}, "[30]": {"molecular_target": "Human IgG1-Fc, chain B with D356C+T366S+L368A+Y407V (human) [IgG part: P0DOX5]"}, "[31]": {"molecular_target": "Human IgG1-Fc, chain B with D356C+T366S+L368A+Y407V (human) [IgG part: P0DOX5]", "remark": "listed apart in the source"}, "[32]": {"molecular_target": "ScFv-Fc fusion protein, chain A with Y349C+T366W+K409E"}, "[33]": {"molecular_target": "VhH-Fc fusion protein (camel single domain antibody variable region-Fc), chain B with D356C+T366S+L368A+Y407V+F405K"}}, "note": "Values joined by “and” are separate entries in the source; they are usually repeats but may differ in a detail not shown here. Equal values may be shown once. Read-outs that look alike come from different tables or passages of the source.", "data": [{"substance": "VhH-Fc fusion protein, chain B with T366S+L368A+Y407V+K409A+E357A", "values": [{"measurement": "VhH-Fc homodimer (%)", "setting": "[1]", "value": 7, "unit": "%"}]}, {"substance": "Human IgG1-Fc, chain B with D356C+T366S+L368A+Y407V+Q347R (from UniProt P0DOX5 223-449)", "values": [{"measurement": "Fc homodimer (%)", "setting": "[2]", "value": 14, "unit": "%"}]}, {"substance": "ScFv-Fc fusion protein, chain A with T366W+F405K", "values": [{"measurement": "ScFv-Fc homodimer (%)", "setting": "[3]", "value": 5, "unit": "%"}]}, {"substance": "Human IgG1-Fc, chain B with D356C+T366S+L368A+Y407V+K360E+Q347E (from UniProt P0DOX5 223-449)", "values": [{"measurement": "Fc homodimer (%)", "setting": "[4]", "value": 24, "unit": "%"}]}, {"substance": "VhH-Fc fusion protein, chain B with T366S+L368G+Y407A+K409A", "values": [{"measurement": "VhH-Fc homodimer (%)", "setting": "[5]", "value": 7, "unit": "%"}]}, {"substance": "ScFv-Fc fusion protein, chain A with T366W+K409A", "values": [{"measurement": "ScFv-Fc homodimer (%)", "setting": "[6]", "value": 15, "unit": "%"}]}, {"substance": "ScFv-Fc fusion protein, chain A with Y349C+T366W+F405K+K360E+Q347E", "values": [{"measurement": "ScFv-Fc homodimer (%)", "setting": "[7]", "value": 14, "unit": "%"}]}, {"substance": "VhH-Fc fusion protein, chain B with D356C+T366S+L368A+Y407V", "values": [{"measurement": "VhH-Fc homodimer (%)", "setting": "[8]", "value": 27, "unit": "%"}]}, {"substance": "ScFv-Fc fusion protein, chain A with Y349C+T366W+K409A+K360E+Q347E", "values": [{"measurement": "ScFv-Fc homodimer (%)", "setting": "[9]", "value": 24, "unit": "%"}]}, {"substance": "ScFv-Fc fusion protein, chain A with T366W+K409A+Y349D", "values": [{"measurement": "ScFv-Fc homodimer (%)", "setting": "[10]", "value": 14, "unit": "%"}]}, {"substance": "ScFv-Fc fusion protein, chain A with Y349C+T366W+K409A+Q347R", "values": [{"measurement": "ScFv-Fc homodimer (%)", "setting": "[11]", "value": 21, "unit": "%"}]}, {"substance": "ScFv-Fc fusion protein, chain A with T366W+F405K+Y349D+S354D", "values": [{"measurement": "ScFv-Fc homodimer (%)", "setting": "[12]", "value": 9, "unit": "%"}]}, {"substance": "ScFv-Fc fusion protein, chain A with Y349C+T366W+F405K", "values": [{"measurement": "ScFv-Fc homodimer (%)", "setting": "[13]", "value": 9, "unit": "%"}, {"measurement": "ScFv-Fc homodimer (%)", "setting": "[14]", "value": 10, "unit": "%"}, {"measurement": "ScFv-Fc homodimer (%)", "setting": "[15]", "value": 17, "unit": "%"}]}, {"substance": "ScFv-Fc fusion protein (anti-Her2 single chain antibody-Fc), chain A with Y349C+T366W", "values": [{"measurement": "ScFv-Fc homodimer (%)", "setting": "[16]", "value": "29% and 24%"}]}, {"substance": "VhH-Fc fusion protein, chain B with T366S+L368A+Y407V+D399S+F405K", "values": [{"measurement": "VhH-Fc homodimer (%)", "setting": "[17]", "value": 13, "unit": "%"}]}, {"substance": "ScFv-Fc fusion protein, chain A with Y349C+T366W+F405K+Q347R", "values": [{"measurement": "ScFv-Fc homodimer (%)", "setting": "[18]", "value": 14, "unit": "%"}]}, {"substance": "Human IgG1-Fc, chain B with D356C+T366S+L368A+Y407V+F405K+K360E+Q347E (from UniProt P0DOX5 223-449)", "values": [{"measurement": "Fc homodimer (%)", "setting": "[19]", "value": 8, "unit": "%"}]}, {"substance": "VhH-Fc fusion protein, chain B with T366S+L368A+Y407V+K409A+K392D", "values": [{"measurement": "VhH-Fc homodimer (%)", "setting": "[20]", "value": 13, "unit": "%"}]}, {"substance": "Human IgG1-Fc, chain B with D356C+T366S+L368A+Y407V+F405K+Q347R (from UniProt P0DOX5 223-449)", "values": [{"measurement": "Fc homodimer (%)", "setting": "[21]", "value": 12, "unit": "%"}]}, {"substance": "ScFv-Fc fusion protein, chain A with T366W+K409A+Y349D+S354D", "values": [{"measurement": "ScFv-Fc homodimer (%)", "setting": "[22]", "value": 10, "unit": "%"}]}, {"substance": "Human IgG1-Fc, chain B with D356C+T366S+L368A+Y407V+F405K (from UniProt P0DOX5 223-449)", "values": [{"measurement": "Fc homodimer (%)", "setting": "[23]", "value": "18% and 13%"}, {"measurement": "Fc homodimer (%)", "setting": "[24]", "value": 10, "unit": "%"}]}, {"substance": "ScFv-Fc fusion protein, chain A with Y349C+T366W+K409A", "values": [{"measurement": "ScFv-Fc homodimer (%)", "setting": "[25]", "value": 13, "unit": "%"}, {"measurement": "ScFv-Fc homodimer (%)", "setting": "[26]", "value": 10, "unit": "%"}, {"measurement": "ScFv-Fc homodimer (%)", "setting": "[27]", "value": 21, "unit": "%"}]}, {"substance": "ScFv-Fc fusion protein, chain A with T366W+K409A+K392D", "values": [{"measurement": "ScFv-Fc homodimer (%)", "setting": "[28]", "value": 7, "unit": "%"}]}, {"substance": "ScFv-Fc fusion protein, chain A with T366W+F405K+D399S", "values": [{"measurement": "ScFv-Fc homodimer (%)", "setting": "[29]", "value": 6, "unit": "%"}]}, {"substance": "Human IgG1-Fc, chain B with D356C+T366S+L368A+Y407V (from UniProt P0DOX5 223-449)", "values": [{"measurement": "Fc homodimer (%)", "setting": "[30]", "value": 20, "unit": "%"}, {"measurement": "Fc homodimer (%)", "setting": "[31]", "value": 23, "unit": "%"}]}, {"substance": "ScFv-Fc fusion protein, chain A with Y349C+T366W+K409E", "values": [{"measurement": "ScFv-Fc homodimer (%)", "setting": "[32]", "value": 25, "unit": "%"}]}, {"substance": "VhH-Fc fusion protein (camel single domain antibody variable region-Fc), chain B with D356C+T366S+L368A+Y407V+F405K", "values": [{"measurement": "VhH-Fc homodimer (%)", "setting": "[33]", "value": 19, "unit": "%"}]}]}
